Here are results for 6 molecules from patent publication US20220098319A1 (SHANGHAI PHARMAEXPLORER, published 2022).

Where a chain is given by its changes, count along the chain named.

A word on the Kd: it is the equilibrium constant for the complex coming apart. Broadly, the koff is the rate constant with which the complex falls apart. Usually kon stands for a measure of how fast the partners come together. For orientation: EC50 means the concentration that produces a half-maximal response.

The labels stand for the following.
T1: His-tagged CD73 extracellular domain protein (hCD73 ECD-His) (human, UniProt P21589 27-547)
T1 construct: Expressed in CHO cells from pTT5-hCD73 ECD-His6, purified on nickel column; also called hCD73 ECD-His6; human CD73 ECD
T1 sequence: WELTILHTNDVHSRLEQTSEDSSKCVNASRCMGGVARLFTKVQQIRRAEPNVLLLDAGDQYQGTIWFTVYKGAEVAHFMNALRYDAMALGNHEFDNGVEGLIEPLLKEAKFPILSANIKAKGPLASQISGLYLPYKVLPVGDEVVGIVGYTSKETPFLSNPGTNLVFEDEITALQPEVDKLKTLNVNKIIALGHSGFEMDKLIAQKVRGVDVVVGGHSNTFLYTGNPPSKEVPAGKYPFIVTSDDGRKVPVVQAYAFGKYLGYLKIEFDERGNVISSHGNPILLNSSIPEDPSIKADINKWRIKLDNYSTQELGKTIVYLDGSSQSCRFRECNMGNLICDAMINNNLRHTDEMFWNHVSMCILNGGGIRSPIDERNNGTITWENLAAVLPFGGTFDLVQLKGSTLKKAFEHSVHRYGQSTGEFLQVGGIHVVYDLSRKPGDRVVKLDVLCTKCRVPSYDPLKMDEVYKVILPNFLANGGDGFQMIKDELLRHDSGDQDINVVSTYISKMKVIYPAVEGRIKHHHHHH

T2: murine CD73 (on transfected CHOK1 cells) (mouse, UniProt Q61503 29-551)
T2 construct: whole, on cells; also called CHOK1-mCD73; mCD73
T2 sequence (looked up): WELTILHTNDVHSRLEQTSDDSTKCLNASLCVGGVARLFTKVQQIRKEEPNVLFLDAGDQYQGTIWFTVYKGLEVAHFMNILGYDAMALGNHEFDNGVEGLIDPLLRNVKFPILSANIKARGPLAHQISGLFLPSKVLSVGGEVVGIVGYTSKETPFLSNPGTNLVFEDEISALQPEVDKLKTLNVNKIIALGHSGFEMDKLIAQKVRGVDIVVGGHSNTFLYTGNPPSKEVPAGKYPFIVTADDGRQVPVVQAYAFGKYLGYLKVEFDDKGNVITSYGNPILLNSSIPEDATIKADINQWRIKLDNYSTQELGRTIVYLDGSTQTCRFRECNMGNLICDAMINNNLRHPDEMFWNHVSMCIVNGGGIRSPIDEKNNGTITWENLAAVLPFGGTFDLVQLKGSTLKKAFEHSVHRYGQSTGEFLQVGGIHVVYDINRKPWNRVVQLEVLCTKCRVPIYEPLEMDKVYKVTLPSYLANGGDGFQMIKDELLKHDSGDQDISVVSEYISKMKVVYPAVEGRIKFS

T3: human CD73 (full length, on transfected CHOK1 cells) (human, UniProt P21589 27-549)
T3 construct: whole, on cells; The same id is used for CD73 on human CD4+ T cells in the proliferation assays; also called CHOK1-hCD73; hCD73
T3 sequence (looked up): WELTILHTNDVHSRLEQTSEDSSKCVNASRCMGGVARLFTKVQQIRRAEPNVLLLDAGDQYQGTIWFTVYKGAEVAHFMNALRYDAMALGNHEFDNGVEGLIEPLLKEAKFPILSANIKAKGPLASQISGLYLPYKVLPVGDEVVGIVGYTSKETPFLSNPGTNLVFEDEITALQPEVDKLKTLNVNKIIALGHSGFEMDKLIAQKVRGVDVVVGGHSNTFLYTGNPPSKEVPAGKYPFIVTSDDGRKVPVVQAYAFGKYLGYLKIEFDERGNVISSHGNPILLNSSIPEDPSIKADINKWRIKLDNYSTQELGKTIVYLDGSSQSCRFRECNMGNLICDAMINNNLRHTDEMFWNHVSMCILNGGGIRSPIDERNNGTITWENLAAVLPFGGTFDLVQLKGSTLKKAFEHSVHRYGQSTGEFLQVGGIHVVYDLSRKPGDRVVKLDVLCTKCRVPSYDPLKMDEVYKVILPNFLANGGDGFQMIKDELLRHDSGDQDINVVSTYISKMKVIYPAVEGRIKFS

T4: cynomolgus monkey CD73 (on transfected CHOK1 cells) (cynomolgus monkey, UniProt A0A2K5V5U7 27-549)
T4 construct: whole, on cells; also called CHOK1-cCD73; CHOK1-CCD73
T4 sequence: T3 sequence (looked up) with M199T, T350A, V466I

B1: mab038xhIgG1TM (clone 69C9E12), mouse-human chimeric anti-CD73 antibody (antibody, V domains shown)
VH: QVQLQQPGTELVNPGASVKLSCKASGYTFTSYWMHWVKQRPGQGLEWIGNINPSNGGTHYNEKFNNKATLTVDKSSSTAYMQLSSLTSEDSAVFYCARGDYAYDWYFTVWGTGTTVTVSS
VL: DIVLTQSPASLAVSLGQRAIISCKASQSVSFAGTGLMHWYQQKPGQQPKLLIYRVSNLEAGIPTRFSGSGSRTDFTLNIHPVEEDDAATYYCQQNREFPWTFGGGTKLEIK
notes: also called mAb038 chimeric antibody
B2: mab041xhIgG1TM (clone 71E10B3), mouse-human chimeric anti-CD73 antibody (antibody, V domains shown)
VH: QVQLQQPGTELVKPGASVKLSCKASGYTFTSYWMHWVKQRPGQGLEWIGNINPSNGGTNYNQKFKSKATLTVDKSSNTASMQLSSLTSEDSAVYYCARGDYGYDWYLDVWGTGTTVTVSS
VL: B1 VL with T34P, G35S, V55T, I62V, R72G
notes: also called mAb041 chimeric antibody
B3: mab036xhIgG1TM (clone 66H6C12), mouse-human chimeric anti-CD73 antibody (antibody, V domains shown)
VH: QVQLQQSGAEVVKPGASVKISCKASGYVFSSYWINWVKQRPGKGLEWIGKIFPGNGDTDYNGNFKGKATLTADKSSSTAYMQLSSLTSEDSAVYFCAGFADWGQGTLVTVSA
VL: DIQMTQSPSSLSASLGERVSLTCRASQDIGERLIWLQQEPDGTFKRLIYATSSLDSGVPKRFSGSSSGSDYSLTISRLESEDFVDYYCLQYASSPYTFGGGTKLEIK
notes: also called mAb036 chimeric antibody
B4: mab044xhIgG1TM (clone 80H7D6), mouse-human chimeric anti-CD73 antibody (antibody, V domains shown)
VH: EVKLVESGGGLVQPGGSLRLSCAASGFTFTDYYMSWVRQPPGKALEWLGFIRNKADGSTTEYSASVKGRFTISRDNSQSILYLQMNALRPEDSATYYCTRSPIYFDNWYFDVWGTGTTVTVSS
VL: DIVMSQSPSSLAVSVGEKVTMTCKSSQSLLYSNNQKNYLAWYQQKPGQSPKLLIYWASTRESGVPDRFTGSGSGTDFTLTLSSVKAEDLAVYYCQQYYSYPFTFGSGTKLEIK
notes: also called mAb044 chimeric antibody
B5: mab042xhIgG1TM (clone 77B9A3), mouse-human chimeric anti-CD73 antibody (antibody, V domains shown)
VH: QVQLQQSGAGLVKPGASVKLSCKASGYTFTNYWMHWVKQRPGQGLEWIGMIHPNSGSTNNNEKFKNKATLTVDKSSNTAYMQLSSLTSEDSAVYYCARFFFGGYPHYYALDYWGQGTSVTVSS
VL: DIVMTQSQKFMSTTVGDRVSITCKASQNVGTAVAWYQQKPGQSPKLLIYSASDRYTGVPDRLTGSGSGTDFTLTISNVQSEDLADYFCQQYSSFPLFTFGSGTKLVIQ
notes: also called mAb042 chimeric antibody
B6: mab034xhIgG1TM (clone 60G1C8), mouse-human chimeric anti-CD73 antibody (antibody, V domains shown)
VH: DVQLQESGPGLVKPSQSLSLTCSVTGYSITSRYYWNWIRQFPGNKLEWMGYMTYDGTNNYNPSLTNRISITRDTSKNQFFLKLNSVTAEDTATYFCARGGWDPFDYWGQGTTLTVSS
VL: DIQMTQSPAALSASVGETVTITCRASDNIYSYLAWYQQKQGKCPQLLVKNAKTLAEGVPSRFSGSGSGTQFSLRINSLQPDDFGTYYCQHYYGTPLTFGAGTKLELK
notes: also called mAb034 chimeric antibody

In one test the target is T1, His-tagged CD73 extracellular domain …. Kind of test: Octet BLI, antibody on AHC sensor, antigen 50-200 nM, 1:1 fit. The source says: Octet Red 96 was selected as the test instrument, and AHC biosensor was selected as the test sensor in this experiment. Anti-human IgG Fc antibody has been immobilized on the AHC sensor, which can be used to directly capture the 15 antibodies in this experiment. Then the sensor was immersed in the analysis sample (antigen). There were five steps in this experiment: 1, Baseline (120 s) 2, Loading (capture antibody) (300 s) 3, Baseline (120 s) 4, Association (binding antigen) (180 s) 5, Dissociation (antigen dissociation) (1200 s). After the test was completed, the regeneration buffer (Glycine PH1.5) and the neutralization buffer (1*PBS buffer) were alternately immersed for 5 seconds, and the sensor was regenerated by a total of five cycles. The maximum number of sensor regeneration times is 10. The running buffer in this experiment is the sample diluent (1*PBS buffer containing 0.02% Tween20 and 0.1% BSA), that is, the buffer used in the Baseline step, the Dissociation step, and the blank analyte sample. Four sensors are used at one running in this experiment.
Sample treatment: all the antibodies were diluted to the working concentration of 10 ug/ml with sample diluent (1*PBS buffer containing 0.02% Tween20 and 0.1% BSA), and the analyte samples (antigens) were diluted to three working concentrations: 200 nM, 100 nM and 50 nM.
For data analysis, Octet Data Analysis (version 7.0) was used to calculate the response signal value (the signal of the coupled analyte sample minus the signal of the blank analyte sample), and a 1:1 binding model was used to fit the data.
A general note: BLI is a label-free optical method that tracks binding on a fibre tip over time.
B1: the Kd stood at 124 pM, the off-rate constant (koff) was determined as 2.97e-05 s⁻¹ and the association rate constant (kon) turned out to be 240000 M⁻¹ s⁻¹.
In the same order, the values of B2 are 298 pM, 4.41e-05 s⁻¹ and 148000 M⁻¹ s⁻¹.
In the same order, the values of B3 are 21.3 pM, 6.42e-06 s⁻¹ and 301000 M⁻¹ s⁻¹.
On the same counts, the results for B4 are 86 pM, 3.29e-05 s⁻¹ and 383000 M⁻¹ s⁻¹.
Molecule B5 returned a Kd of 59.2 pM, an off-rate (koff) of 2.73e-05 s⁻¹ and an on-rate constant (kon) of 461000 M⁻¹ s⁻¹.
In the same order, the values of B6 are 57.7 pM, 2.36e-05 s⁻¹ and 409000 M⁻¹ s⁻¹.

The target of another test is T2, murine CD73 (on transfected CHOK1 cells). Briefly: FACS on CHOK1-mCD73 cells.
For the molecule B1, the binding result is recorded as “no binding”.
Still for that read-out and setting: the same measure for B2: “no binding”; for B3: “no binding”; for B4: “no binding”.
With B5, the binding result was “no binding”.
For B6, the binding result is on record as “no binding”.

The target in a further test is T3, human CD73 (full length, on transfected …). Kind of test: FACS on CHOK1-hCD73 cells.
As to B1, a half-maximal effect (EC50) was put at 1800 pM and the “MAX MFI fold” value turned out to be 120 fold.
On the same counts, the results for B2 are 1300 pM and 127 fold.
For the molecule B3, the concentration giving a half-maximal response (EC50) turned out to be 2000 pM and the “MAX MFI fold” value was 125 fold.
On the same counts, the results for B4 are above 10000 pM and above 150 fold.
With B5, the 50% effective concentration (EC50) was 2300 pM and the “MAX MFI fold” value is 136 fold.
For the molecule B6, the EC50 turned out to be 5700 pM and the “MAX MFI fold” value stood at 154 fold.

For the next test the target is unchanged. Briefly: cell-based or functional assay.
In the case of B1, the “Inhibition assay of enzyme activity, IC50” value (“Inhibition assay … IC50” for short) amounted to 800 pM and the “Inhibition assay of enzyme activity, MAX % inhibition” value (“Inhibition assay … MAX % inhibition” for short) was 52.4%.
In the same order, the values of B2 are 700 pM and 54.4%.
For B3, the “Inhibition assay … IC50” value was found to be 300 pM and the “Inhibition assay … MAX % inhibition” value is 60.6%.
B4: the “Inhibition assay … IC50” value was found to be 100 pM and the “Inhibition assay … MAX % inhibition” value is 49.1%.
On the same counts, the results for B5 are 500 pM and 66.3%.
As to B6, the “Inhibition assay … IC50” value was 200 pM and the “Inhibition assay … MAX % inhibition” value came to 61.5%.

In a further test the target is T4, cynomolgus monkey CD73 (on transfected …). Briefly: FACS on CHOK1-cCD73 cells.
Turning to B1, the response was half-maximal at 2300 pM (EC50) and the “MAX MFI fold” value was determined as 167 fold.
On the same counts, the results for B2 are 2000 pM and 167 fold.
In the same order, the values of B3 are 1500 pM and 90.2 fold.
With B4, the EC50 turned out to be 7600 pM and the “MAX MFI fold” value is 174 fold.
In the same order, the values of B5 are 5900 pM and 132 fold.
On the same counts, the results for B6 are above 10000 pM and above 150 fold.
